Reference: the supplement of paper PMC9170038

System: MS2 coat protein
Experiment: apparent KD of MS2 coat protein; designed switch direction (-1 OFF switch, 1 ON switch): -1; higher = weaker reporter binding
How it was run: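 On Illumina chips, designed RNA switches with common flanks were made by stalled E. coli RNA polymerase. Titrations with SNAP-549-labelled MS2 coat protein, doubling from 0.7 or 1.5 nM to 3 µM, were done with no input, with 200 uM small-molecule ligand, or with an oligonucleotide input. Apparent KD is the median per design over clusters, from curve fits of normalised cluster fluorescence.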

[1] = Eterna round: R95, input ligand: FMN 200 uM
[2] = Eterna round: R95, input ligand: microRNA oligo, concentration not stated
[3] = Eterna round: R95, input ligand: none
[4] = input ligand: microRNA oligo, concentration not stated

Sequence	apparent KD of MS2 coat protein [1] [nM]	apparent KD of MS2 coat protein [2] [nM]	apparent KD of MS2 coat protein [3] [nM]	apparent KD of MS2 coat protein [4] [nM]	apparent KD of MS2 coat protein (input ligand: FMN 200 uM) [nM]	apparent KD of MS2 coat protein (input ligand: none) [nM]
ACGCAACAUGAGGAUCACCCAUGUCAGGAUAUCCGGCGAAAACCCAAGAAGGGAAACCGGAGAAGGGACAAAGG [ChP 04-04-2015 #1] (puzzle: Exclusion 1)	134	181	189	–	–	–
ACGCAUUGCCUUUGGUAGUGCGUAACAUGAGGAUCACCCAUGUAGGAUAUGGUAGGCUUUGCUUACCAGAAGGACAUUAUAAAC [Mat - Exclusion NG 3 - Mod of JL - D9] (Eterna round: R96, puzzle: Exclusion NG 3)	–	–	–	21.9	–	–
ACGCAUUGCCUUUGGUAGUGCGUAACAUGAGGAUCACCCAUGUAGGAUAUGGUAGGCUUUGCUUACCAGAAGGACAUUGUUGAU [Omei mod of JL ENG3 1.03] (Eterna round: R96, puzzle: Exclusion NG 3)	–	–	–	107	220	130
ACGCAUUGCCUUUGGUAGUGCGUUACAUGAGGAUCACCCAUGUAGGAUAUGGUAGGCAAAGCUUACCAGAAGGACAUGAUAAUU [Mat - Exclusion NG 3 - Mod of JL - D5] (Eterna round: R96, puzzle: Exclusion NG 3)	–	–	–	41.8	–	–
ACGCGUGGCUAGGAUAUCGAGGAAUCUAGCCAGCGAGAAGGAGCCACAUGAGGAUCACCCAUGUGGUGAUCCUC [jl-ex6-4.65 ViennaUCT mod] (Eterna round: R97, puzzle: Exclusion 6)	–	–	–	–	6.76	3.8
ACGGCGGCUCUAGGAUAUGACGACAUGAGGAUCACCCAUGUAGCCUUAGCCUUCACGAAAAUCGAUCAGAAGGAGAGCUCCAGG [Eternabot solution 19] (Eterna round: R96, puzzle: Exclusion NG 2)	–	–	–	10.9	13.5	17.6
ACGUGACAUGAGGAUCACCCAUGUGAGGAUAUCUGGAUAAUUUUUAUUUUAGAUAUCCAGAGAAGGCACAUGUU [Ex1-3: 1Z] (puzzle: Exclusion 1)	–	188	–	–	–	–
ACGUGAUAUCUGUCGGUGGACAUGAGGAUCACCCAUGUAAGCUUUUUGCUCAUCUUAUAACCCGGUGACAGACCUUC [Zaisbela] (puzzle: Sensor v3, turn-off variant 1)	26.8	413	29.5	–	–	–
ACGUUUUUUGAGGAUAUGCGACGUUUUUUCGUCGUAGAAGGCGAUACAUGAGGAUCACCCAUGUUUAUGGGCAU [LRO-Ex6-18] (puzzle: Exclusion 6)	–	129	–	–	–	–
ACUAGAUGAGGAUAUGCAUGUUUUCGUGUUCUUCUAGAUUAACAUGAGGAUCACCCAUGUAGAAGGCGUCAUAU [Exclusion 2 - 29] (puzzle: Exclusion 2)	–	45	–	–	–	–
ACUAUACGAGGAUAUACUGACGGGCCUCAGGCAUCCAUCAGACAUGAGGAUCACCCAUGUAGAAGGCGUAUACU [JR_Exc002_Sub408] (Eterna round: R96, puzzle: Exclusion 2)	–	–	–	44.4	459	51.4
ACUCAACAGUAGGAUAUCAUCAAACUAUUGUGAUGAGAAGGACUGACAUGAGGAUCACCCAUGUUAACGUGAUG [Mod of Brourd 2 - Jieux - Exclusion 6] (Eterna round: R97, puzzle: Exclusion 6)	–	–	–	–	32.1	21.5
ACUCAACAUGAGGAUCACCCAUGUCAGGAUAUCUCUAUUUUGCGCGGGAGCAGAAUAGAGAGAAGGGACAACCU [Eternabot (Original) Solution 3] (Eterna round: R97, puzzle: Exclusion 1)	–	–	–	–	91.2	42.8
ACUCGACAUGAGGAUCACCCAUGUGAGGAUAUGGCCUGUAUGGCGUGAGCUGGAUCAAUCAGAAGGCGCGUGGG [salish99_ex1_r4_052] (Eterna round: R97, puzzle: Exclusion 1)	–	–	–	–	80.4	56
ACUGGUCGAGGAUAUACAAUCGUGCUUCGGCACGUAAGGUCACAUGAGGAUCACCCAUGUAGAAGGCGACCAGU [E2/2-A3] (Eterna round: R97, puzzle: Exclusion 2)	–	–	–	–	226	29.5
ACUGGUCGAGGAUAUAUAUGACGUGCUUCGGCACGAAGAUCACAUGAGGAUCACCCAUGUAGAAGGCGACCAGU [E2/8-A2] (Eterna round: R97, puzzle: Exclusion 2)	–	–	–	–	731	130
ACUUAUUGAGGAUAUACAUUAAUUUACAUGAGGAUCACCCAUGUUCUUCAAUGUAUAUAUGUAGAAGGCAGAAGAA [JL-ex5-4.30 Malcolm mod] (Eterna round: R97, puzzle: Exclusion 5)	–	–	–	–	29.3	14

Sequence	apparent KD of MS2 coat protein [1] [nM]	apparent KD of MS2 coat protein [2] [nM]	apparent KD of MS2 coat protein [3] [nM]	apparent KD of MS2 coat protein [4] [nM]	apparent KD of MS2 coat protein (input ligand: FMN 200 uM) [nM]	apparent KD of MS2 coat protein (input ligand: none) [nM]
ACUUCACAUGAGGAUCACCCAUGUGAGGAUAUCGUCGAGGAUGUAAUGCCAUCCGUGACGAGAAGGCGCAUGGU [Exclusion 1 (Mod 2.1 solution 40 by Eternabot)] (Eterna round: R97, puzzle: Exclusion 1)	–	–	–	–	147	31.1
ACUUGUCAUGAGGAUAUGCGACGCAACGGUGGAGCAGAAGGCGUGACAUGAGGAUCACCCAUGUCAGUUCGCGA [eternacac ex6r4 sub32] (Eterna round: R97, puzzle: Exclusion 6)	–	–	–	–	43.4	16.1
AGAAAUGCCCAUGGCCACAAGCUUUUUGCUUGUCUUACUACAUGAGGAUCACCCAUGUAACAUGGGCUCCUGACAAA [Soarriat] (puzzle: Sensor v3, turn-off variant 2)	12.9	9.12	10.9	–	–	–
AGAAGACAUGAGGAUCACCCAUGUAAGGAUAUCGAAGGUAAGAGAGGAAAGAAGGGAACGAGAAGGUACAGGUG [JR_Exclu1_Sub096] (puzzle: Exclusion 1)	91.6	107	156	–	–	–
AGAAGACAUGAGGAUCACCCAUGUAAGGAUAUCGAAGGUAUGAGAGGAAAGAGGUUAACGAGAAGGUACAGGUG [JR_Exclu1_Sub098] (puzzle: Exclusion 1)	85.9	74.1	130	–	–	–
AGAAGACAUGAGGAUCACCCAUGUAAGGAUAUCGGAGGUAAGGGAGGAAGGAGAUAGGCGAGAAGGUACAGGUG [JR_Exclu1_Sub093] (puzzle: Exclusion 1)	39	53.1	51.7	–	–	–
AGACAGUGAGGAUAUGCAGUCGGUGUCACCUGAUGAGAAGAACAUGAGGAUCACCCAUGUAGAAGGCACAGGAA [Tearrice] (puzzle: Exclusion 2)	–	40.6	–	–	–	–
AGAGAAUACUCAGGAUAUCGGAAUAGAAAGAGACGAGAAGGGAGACAUGAGGAUCACCCAUGUGAAGUCUUGAGGCUGCAUGGA [Prohibition 26 - Jieux - Exclusion NG 1] (Eterna round: R96, puzzle: Exclusion NG 1)	–	–	–	122	197	165
AGAGUGCUGCGAGGAUAUACAUGAGGAUCACCCAUGUGGAUCUGUGAGGCUUUGCCUCACAGGAUGUAGAAGGCGCAGUACUCA [Mat - Exclusion NG 2 - Mod of JL - D48] (Eterna round: R96, puzzle: Exclusion NG 2)	–	–	–	18.2	178	25.4
AGAGUGCUGCGAGGAUAUACAUGAGGAUCACCCAUGUGGAUCUGUGAGGGAAAACCUCACAGGAUGUAGAAGGCGCAGUACUCA [Mat - Exclusion NG 2 - Mod of JL - D50] (Eterna round: R96, puzzle: Exclusion NG 2)	–	–	–	15.8	134	37.2
AGAGUGUGAGGAUAUAUGGUGAAGAUGAAGAAAGAGAAGGAGUAGAAGGUACAUGAGGAUCACCCAUGUUGAGG [JR_Exclu4_Sub071] (puzzle: Exclusion 4)	44.8	47.8	45.5	–	–	–
AGAUCACAUGAGGAUCACCCAUGUCAGGAUAUCUACAUUGAAGCUUCGGCUUCAAUGUAGAGAAGGGAUAAUUA [E1/4-B1] (Eterna round: R97, puzzle: Exclusion 1)	–	–	–	–	119	62.2
AGAUGGCGAGGAUAUACAUGAGGAUCACCCAUGUGAGAGAAUAAAGUGAGGAAGAAAAGUAGAAGGCGCUGUCA [Mat - Exclusion 3 - Mod of Salish D10] (puzzle: Exclusion 3)	–	43.3	–	–	–	–
AGAUGUAGAUACCGAUCCUACAUGAGGAUCACCCAUGUAGCAAGACGUGCACGCGAAGCUCGUCAGACUACCAGAAG [salish99_TOv1_r3_083] (puzzle: Sensor v3, turn-off variant 1)	114	99.7	137	–	–	–
AGAUGUAGAUACCGAUCCUACAUGAGGAUCACCCAUGUAGCUAGACGUGCCCGCGUCGCUCGUCAGACUACCAGUAG [salish99_TOv1_r3_090] (puzzle: Sensor v3, turn-off variant 1)	252	248	269	–	–	–
AGAUGUCCGCAGGAUAUGCGGGCGAGGCCCUAAGCAGAAGGGCGGACAUGAGGAUCACCCAUGUGAGUAAAAGA [EX6 A.23] (Eterna round: R97, puzzle: Exclusion 6)	–	–	–	–	94.2	25.2
AGAUUAAAAGUAAGGAUAUGAUGCAGGAAACUGCGUCAGAAGGUACAUGAGGAUCACCCAUGUUAAACUAAUUU [Explosion 6 - Jieux - Brourd's mod of Exclusion 4] (Eterna round: R97, puzzle: Brourd's mod of Exclusion 4)	–	–	–	–	19.4	14.4
